Literature values, collected in PMC8711257.

Assays:
[1] = molecular target: MET (Homo sapiens) (UniProt P08581)
[2] = molecular target: MET ECD (Homo sapiens) (UniProt P08581)

Kd [1]: 3 nM
Kd [2]: 150 nM
Substance: HGF NK1 NK1 (from UniProt P14210)
